Data taken from patent US20250250330A1 (REVOPSIS THERAPEUTICS, published 2025).
Each block holds one binder with its values, some of them ahead of it.

Experiments:
[1] = biological target: T1, Recombinant human VEGF165 (Peprotech, Cat #100-20) (human, UniProt P15692-4 27-191); assay: ELISA on rhVEGF165; biotinylated anti-VpreB antibody and streptavidin-HRP detection
T1 construct: Bought protein; also called rhVEGF165; rh VEGF165

[2] = biological target: T2, His-tagged recombinant human ANG-2 (AcroBiosystems, Cat #AN2-H52H4) (human, UniProt O15123 275-496); assay: ELISA on rhANG-2; biotinylated anti-VpreB antibody and streptavidin-HRP detection
T2 construct: also called rhANG-2; rhANG-2-His; not shown: His tag
T2 sequence (looked up): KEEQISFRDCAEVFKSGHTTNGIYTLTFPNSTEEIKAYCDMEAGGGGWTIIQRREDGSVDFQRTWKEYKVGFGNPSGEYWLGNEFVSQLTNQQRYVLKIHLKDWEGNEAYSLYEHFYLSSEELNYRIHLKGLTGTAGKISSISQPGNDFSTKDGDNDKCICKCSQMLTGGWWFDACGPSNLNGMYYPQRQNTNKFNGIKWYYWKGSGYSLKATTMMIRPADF
Protocol: SgG1 was diluted in blocking buffer at a starting concentration of 10 nM. Sab and scSv were diluted in blocking buffer at a starting concentration of 100 nM. They were then 1:3 serial diluted.

T1 sequence (P15692 other isoform, or with tags, fused parts or gaps limits assumed): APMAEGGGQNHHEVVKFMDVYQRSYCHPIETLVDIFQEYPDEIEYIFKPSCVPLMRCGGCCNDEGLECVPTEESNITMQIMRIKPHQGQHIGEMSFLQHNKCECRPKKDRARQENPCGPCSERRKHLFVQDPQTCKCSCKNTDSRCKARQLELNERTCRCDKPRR

EC50 [1]: 0.0063 nM
B1: RP-014_VEGF-A_Sab (Fab, V domains shown)
VH: QVQLVQSGAEVKKPGASVKVSCKASGYTFSIYTIHWVRQAPGQGLEWMGGINPYNGNTKYAQKFQGRVTMTRDTSISTAYMELSRLRSDDTAVYYCAKAPAVFWWTGLDYWGQGTLVTVSS
VL: QPVLHQPPAMSSALGTTIRLTCTLRNDHDIGVYSVYWYQQRPGHPPRFLLRYFSQSDKSQGPQVPPRFSGSKDVARNRGYLSISELQPEDEAMYYCAMGARSSVTHVFGSGTQLTVLS
notes: also called anti-VEGF-A Sab; not shown: CH1 domain

EC50 [2]: 0.0485 nM
B2: RP-017_ANG-2_Sab (Fab, V domains shown)
VH: EVQLVESGGGLVKPGGSLRLSCAASGFTFSSYGMHWVRQAPGKGLEWVAGISADSGDKNYADSVKGRFTISRDNAKNSLYLQMNSLRAEDTAVYYCAKEFISWIYTFDYLDYWGQGTLVTVSS
VL: B1 VL
notes: also called anti-ANG-2 Sab; not shown: CH1 domain
